Measurements: patent publication CN108840930A (SHENGYAN MEDICINE TECH WUHAN CO LTD, dated 2018)

Target: 抗体-Fc融合蛋白scFv-3B5-Fc (anti-human CD19 scFv 3B5 fused to human IgG1 Fc) (human, UniProt P01857 99-330 = IgG part)
Assay: concentration-gradient ELISA, Fc-CD19 coated at 100 ng/well, goat anti-human-HRP detection, nonlinear fit (b = KD)

B1: 人Fc-CD19重组蛋白 (recombinant human Fc-CD19, bought from Acrobiosystems) (Fc fusion, UniProt P15391 20-291, looked up)
chain: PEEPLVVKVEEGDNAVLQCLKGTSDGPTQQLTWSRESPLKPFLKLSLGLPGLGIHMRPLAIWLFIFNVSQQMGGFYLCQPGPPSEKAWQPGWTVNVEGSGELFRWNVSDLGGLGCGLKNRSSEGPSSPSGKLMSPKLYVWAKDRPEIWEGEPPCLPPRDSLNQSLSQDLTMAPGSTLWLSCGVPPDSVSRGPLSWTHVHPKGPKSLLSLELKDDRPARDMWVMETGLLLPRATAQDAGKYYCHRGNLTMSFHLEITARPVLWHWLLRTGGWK
notes: Bought reagent; the order here follows the printed name Fc-CD19; also called Fc-CD19重组抗原; 重组人CD19抗原; not shown: Fc part of the bought Fc-CD19 fusion
With B1 as the binder, how does the Kd read?
Its Kd is 475 pM.
